Molecular target: LRP1 receptor on human astrocytoma 1321N1 cells (human) (UniProt Q07954)
Test: cell-based or functional assay

Sequence of UniProt Q07954 (Q07954 20-4544): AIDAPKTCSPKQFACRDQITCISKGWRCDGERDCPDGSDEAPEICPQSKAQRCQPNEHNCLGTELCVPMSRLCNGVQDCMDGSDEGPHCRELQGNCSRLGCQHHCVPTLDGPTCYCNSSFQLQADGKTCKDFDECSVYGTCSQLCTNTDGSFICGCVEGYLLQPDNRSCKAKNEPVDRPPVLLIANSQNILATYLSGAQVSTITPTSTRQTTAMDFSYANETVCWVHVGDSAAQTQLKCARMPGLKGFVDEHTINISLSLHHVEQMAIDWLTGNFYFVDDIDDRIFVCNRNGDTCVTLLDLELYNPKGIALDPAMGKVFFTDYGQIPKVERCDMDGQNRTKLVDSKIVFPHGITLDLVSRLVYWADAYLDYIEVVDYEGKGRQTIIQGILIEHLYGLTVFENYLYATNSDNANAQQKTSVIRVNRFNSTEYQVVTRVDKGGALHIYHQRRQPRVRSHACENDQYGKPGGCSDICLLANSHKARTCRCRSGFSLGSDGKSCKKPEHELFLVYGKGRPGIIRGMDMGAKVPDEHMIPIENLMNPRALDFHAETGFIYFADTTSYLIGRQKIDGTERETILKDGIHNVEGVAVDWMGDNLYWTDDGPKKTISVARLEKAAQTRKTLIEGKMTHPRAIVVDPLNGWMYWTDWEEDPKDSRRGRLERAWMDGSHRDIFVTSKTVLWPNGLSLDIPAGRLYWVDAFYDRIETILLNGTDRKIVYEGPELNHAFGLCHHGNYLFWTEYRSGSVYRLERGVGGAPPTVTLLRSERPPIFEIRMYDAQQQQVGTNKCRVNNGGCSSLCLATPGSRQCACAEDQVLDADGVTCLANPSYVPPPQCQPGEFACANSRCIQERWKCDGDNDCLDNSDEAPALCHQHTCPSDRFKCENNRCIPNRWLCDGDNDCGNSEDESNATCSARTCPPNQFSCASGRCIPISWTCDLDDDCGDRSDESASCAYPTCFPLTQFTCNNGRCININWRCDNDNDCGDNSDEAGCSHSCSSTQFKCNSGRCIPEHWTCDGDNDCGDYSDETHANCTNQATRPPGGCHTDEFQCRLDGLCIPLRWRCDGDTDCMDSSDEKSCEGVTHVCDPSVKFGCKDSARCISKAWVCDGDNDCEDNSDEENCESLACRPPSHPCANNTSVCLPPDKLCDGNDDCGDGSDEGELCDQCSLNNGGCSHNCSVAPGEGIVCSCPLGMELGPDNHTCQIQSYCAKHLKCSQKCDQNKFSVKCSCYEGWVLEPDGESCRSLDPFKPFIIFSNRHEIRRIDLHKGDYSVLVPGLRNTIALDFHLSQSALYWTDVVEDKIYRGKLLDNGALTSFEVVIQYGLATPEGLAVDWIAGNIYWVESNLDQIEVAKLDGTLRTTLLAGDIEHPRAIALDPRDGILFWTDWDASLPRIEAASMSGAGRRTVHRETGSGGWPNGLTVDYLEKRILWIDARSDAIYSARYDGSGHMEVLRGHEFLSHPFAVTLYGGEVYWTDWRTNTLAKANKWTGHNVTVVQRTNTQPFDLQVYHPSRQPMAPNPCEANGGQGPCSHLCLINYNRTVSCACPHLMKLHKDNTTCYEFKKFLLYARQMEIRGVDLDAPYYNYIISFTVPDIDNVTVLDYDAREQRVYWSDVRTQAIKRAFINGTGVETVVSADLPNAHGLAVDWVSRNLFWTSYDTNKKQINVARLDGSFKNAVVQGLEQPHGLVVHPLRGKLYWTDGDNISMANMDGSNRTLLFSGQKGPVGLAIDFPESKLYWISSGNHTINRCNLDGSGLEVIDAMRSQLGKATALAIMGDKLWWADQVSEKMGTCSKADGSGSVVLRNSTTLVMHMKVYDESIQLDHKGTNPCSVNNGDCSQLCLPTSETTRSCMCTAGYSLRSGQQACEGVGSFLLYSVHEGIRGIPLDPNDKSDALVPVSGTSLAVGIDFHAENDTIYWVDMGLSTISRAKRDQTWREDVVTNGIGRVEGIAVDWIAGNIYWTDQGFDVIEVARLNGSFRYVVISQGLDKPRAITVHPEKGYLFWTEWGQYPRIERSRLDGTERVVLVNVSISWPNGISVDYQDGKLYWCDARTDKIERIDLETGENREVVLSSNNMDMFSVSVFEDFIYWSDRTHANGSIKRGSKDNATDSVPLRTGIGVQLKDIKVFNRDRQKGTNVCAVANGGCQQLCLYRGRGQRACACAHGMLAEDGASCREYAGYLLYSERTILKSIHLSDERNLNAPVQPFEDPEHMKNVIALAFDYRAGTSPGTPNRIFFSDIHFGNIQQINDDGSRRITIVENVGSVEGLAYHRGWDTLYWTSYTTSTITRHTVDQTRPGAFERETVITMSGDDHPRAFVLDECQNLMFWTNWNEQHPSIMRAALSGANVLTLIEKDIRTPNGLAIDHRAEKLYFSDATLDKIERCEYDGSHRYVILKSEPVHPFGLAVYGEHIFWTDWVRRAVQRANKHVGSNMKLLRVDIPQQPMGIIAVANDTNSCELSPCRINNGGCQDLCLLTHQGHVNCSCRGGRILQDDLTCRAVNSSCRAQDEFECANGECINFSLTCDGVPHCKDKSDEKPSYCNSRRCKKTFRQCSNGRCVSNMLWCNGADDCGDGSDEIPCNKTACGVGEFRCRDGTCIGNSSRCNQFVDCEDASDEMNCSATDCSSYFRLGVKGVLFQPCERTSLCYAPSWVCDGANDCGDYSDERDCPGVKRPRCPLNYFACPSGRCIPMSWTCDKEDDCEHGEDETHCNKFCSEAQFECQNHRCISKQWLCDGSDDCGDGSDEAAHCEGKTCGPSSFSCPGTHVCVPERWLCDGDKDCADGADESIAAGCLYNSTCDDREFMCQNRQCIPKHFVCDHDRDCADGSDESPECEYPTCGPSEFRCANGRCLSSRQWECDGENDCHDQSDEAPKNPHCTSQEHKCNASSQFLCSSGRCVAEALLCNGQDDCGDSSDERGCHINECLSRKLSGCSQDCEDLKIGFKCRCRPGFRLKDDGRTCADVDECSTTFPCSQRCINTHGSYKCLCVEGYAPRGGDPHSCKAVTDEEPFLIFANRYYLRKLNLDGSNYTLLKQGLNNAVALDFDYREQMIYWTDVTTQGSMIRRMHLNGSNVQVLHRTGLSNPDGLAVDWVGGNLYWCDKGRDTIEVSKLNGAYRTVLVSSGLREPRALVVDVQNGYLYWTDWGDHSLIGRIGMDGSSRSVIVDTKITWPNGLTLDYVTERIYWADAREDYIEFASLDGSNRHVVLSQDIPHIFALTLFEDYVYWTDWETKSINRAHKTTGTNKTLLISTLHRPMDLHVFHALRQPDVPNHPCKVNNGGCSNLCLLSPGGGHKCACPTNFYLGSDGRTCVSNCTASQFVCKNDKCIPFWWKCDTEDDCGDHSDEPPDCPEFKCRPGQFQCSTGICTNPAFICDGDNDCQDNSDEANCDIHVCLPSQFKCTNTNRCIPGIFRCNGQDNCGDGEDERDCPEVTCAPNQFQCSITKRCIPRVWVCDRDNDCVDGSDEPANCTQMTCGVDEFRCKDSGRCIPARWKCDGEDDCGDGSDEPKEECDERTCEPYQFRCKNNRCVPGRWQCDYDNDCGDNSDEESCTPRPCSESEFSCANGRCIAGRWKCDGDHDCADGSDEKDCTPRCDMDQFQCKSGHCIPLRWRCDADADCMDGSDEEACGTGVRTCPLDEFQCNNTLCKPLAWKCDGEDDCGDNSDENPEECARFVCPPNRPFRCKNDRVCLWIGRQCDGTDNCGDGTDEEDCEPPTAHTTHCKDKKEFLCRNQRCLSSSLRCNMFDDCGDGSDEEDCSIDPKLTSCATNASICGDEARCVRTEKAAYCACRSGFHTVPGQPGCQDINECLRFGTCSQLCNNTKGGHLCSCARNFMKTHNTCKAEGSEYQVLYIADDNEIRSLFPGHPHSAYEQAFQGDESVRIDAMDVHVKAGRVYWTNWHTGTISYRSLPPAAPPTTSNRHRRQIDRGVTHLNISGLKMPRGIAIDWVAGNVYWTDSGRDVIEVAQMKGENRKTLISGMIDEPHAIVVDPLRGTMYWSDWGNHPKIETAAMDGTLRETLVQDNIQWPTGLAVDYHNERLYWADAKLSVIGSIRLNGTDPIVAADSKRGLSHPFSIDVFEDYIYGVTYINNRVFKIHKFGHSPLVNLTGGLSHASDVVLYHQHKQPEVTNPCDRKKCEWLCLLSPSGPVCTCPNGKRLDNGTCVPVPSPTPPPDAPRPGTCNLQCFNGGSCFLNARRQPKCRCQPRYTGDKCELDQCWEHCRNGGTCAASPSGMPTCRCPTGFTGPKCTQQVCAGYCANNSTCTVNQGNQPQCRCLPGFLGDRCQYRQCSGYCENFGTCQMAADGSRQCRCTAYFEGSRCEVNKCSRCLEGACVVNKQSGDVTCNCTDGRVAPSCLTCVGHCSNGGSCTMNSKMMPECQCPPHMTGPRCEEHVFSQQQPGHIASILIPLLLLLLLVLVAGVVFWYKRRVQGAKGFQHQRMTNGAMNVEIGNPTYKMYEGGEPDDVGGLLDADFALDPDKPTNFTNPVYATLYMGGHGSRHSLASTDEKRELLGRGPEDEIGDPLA

decrease in colony formation in soft agar (anchorage-independent growth), 1321N1 cells: > 50%
Substance: methylamine-transformed A2M* (activated alpha-2-macroglobulin) (from UniProt P01023 24-1474) (ligand)

— patent EP2322204A1
